US20120114557A1
Blank lines part the entries; values can stand above or below the binder they belong to. Bridge positions count the residues as written; N and C are the ends. Square brackets hold non-standard residues; d marks the D form. Ends that are not written are not given here.

Assays:
Compound ID No 1014 [1] = target: T1, Compound ID No 1014; assay: competition in the dried collagen assay: 1.6 uM soluble competitor protein, 5 uM Comp ID No 1014, 5 uM insoluble type I rat collagen
T1 chain: KKWHCYTYFPHHYCVYG

Compound ID No 1014 [2] = target: T1, Compound ID No 1014; assay: competition in the dried collagen assay: 1.6 uM soluble competitor protein, 5 uM Comp ID No 1014, 5 uM insoluble type I human collagen
[3] = target: human collagen type I (human) (UniProt P02452); assay: dried collagen assay, 5 uM peptide
Sequence of human collagen type I (human) (P02452 162-1218 limits assumed, chain 1 of 2): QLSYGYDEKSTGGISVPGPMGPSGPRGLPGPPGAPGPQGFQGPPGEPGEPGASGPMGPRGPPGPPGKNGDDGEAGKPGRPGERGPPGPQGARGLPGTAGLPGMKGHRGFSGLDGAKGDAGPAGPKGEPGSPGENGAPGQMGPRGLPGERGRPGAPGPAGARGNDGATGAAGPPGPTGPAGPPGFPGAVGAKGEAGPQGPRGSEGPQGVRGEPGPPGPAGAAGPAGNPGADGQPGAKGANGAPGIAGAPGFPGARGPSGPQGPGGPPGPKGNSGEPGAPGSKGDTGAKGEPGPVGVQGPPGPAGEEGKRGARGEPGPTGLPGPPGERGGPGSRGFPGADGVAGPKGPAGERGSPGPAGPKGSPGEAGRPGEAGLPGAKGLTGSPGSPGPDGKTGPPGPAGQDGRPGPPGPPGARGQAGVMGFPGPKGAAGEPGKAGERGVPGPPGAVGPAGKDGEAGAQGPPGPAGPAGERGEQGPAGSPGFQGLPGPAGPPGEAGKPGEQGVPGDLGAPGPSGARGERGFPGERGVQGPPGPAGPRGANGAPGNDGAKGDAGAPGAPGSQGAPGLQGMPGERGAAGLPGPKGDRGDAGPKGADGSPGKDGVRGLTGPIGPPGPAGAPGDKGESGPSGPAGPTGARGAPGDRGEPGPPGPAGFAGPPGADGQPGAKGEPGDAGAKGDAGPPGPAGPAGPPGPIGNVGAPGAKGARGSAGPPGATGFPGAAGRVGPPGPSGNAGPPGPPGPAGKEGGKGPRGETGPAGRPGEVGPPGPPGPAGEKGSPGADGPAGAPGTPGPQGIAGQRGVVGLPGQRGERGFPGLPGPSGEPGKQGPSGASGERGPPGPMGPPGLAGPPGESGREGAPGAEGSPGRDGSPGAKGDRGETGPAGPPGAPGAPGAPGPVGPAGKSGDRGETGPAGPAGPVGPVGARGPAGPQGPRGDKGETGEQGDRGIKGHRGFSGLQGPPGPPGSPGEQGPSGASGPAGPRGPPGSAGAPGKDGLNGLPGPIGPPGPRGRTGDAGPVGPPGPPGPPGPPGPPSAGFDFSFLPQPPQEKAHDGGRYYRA
Sequence of human collagen type I (human) (P08123 80-1119 limits assumed, chain 2 of 2, further chain): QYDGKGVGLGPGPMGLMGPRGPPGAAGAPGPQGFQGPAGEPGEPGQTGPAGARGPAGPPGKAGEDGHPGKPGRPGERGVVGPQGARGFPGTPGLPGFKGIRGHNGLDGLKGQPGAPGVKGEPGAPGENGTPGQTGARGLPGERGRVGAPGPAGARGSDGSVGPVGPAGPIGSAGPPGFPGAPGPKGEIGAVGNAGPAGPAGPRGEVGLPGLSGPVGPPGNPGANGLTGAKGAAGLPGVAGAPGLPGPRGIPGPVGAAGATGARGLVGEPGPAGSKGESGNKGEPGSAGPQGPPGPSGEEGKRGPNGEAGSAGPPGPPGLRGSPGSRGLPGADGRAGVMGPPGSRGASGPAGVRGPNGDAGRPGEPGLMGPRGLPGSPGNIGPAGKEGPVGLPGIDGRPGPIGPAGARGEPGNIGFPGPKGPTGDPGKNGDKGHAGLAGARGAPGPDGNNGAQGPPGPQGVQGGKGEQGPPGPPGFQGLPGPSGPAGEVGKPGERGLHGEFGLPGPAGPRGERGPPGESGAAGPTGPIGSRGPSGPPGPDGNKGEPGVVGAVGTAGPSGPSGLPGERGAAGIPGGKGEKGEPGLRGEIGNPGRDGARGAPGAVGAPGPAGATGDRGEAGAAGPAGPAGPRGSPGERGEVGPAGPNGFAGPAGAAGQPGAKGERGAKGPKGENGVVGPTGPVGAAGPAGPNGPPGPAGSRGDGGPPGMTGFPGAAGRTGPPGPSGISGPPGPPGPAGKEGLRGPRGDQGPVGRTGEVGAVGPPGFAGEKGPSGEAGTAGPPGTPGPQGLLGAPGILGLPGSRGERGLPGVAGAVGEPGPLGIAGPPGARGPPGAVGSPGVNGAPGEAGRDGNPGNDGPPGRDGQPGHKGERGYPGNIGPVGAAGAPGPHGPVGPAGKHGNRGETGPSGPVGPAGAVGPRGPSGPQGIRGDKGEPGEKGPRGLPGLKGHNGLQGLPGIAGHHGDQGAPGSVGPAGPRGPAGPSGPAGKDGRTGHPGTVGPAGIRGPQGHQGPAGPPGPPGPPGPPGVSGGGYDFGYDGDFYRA

[4] = target: rat collagen type I (rat) (UniProt P02454); assay: dried collagen assay, 5 uM peptide
Sequence of rat collagen type I (rat) (P02454 152-1207, chain 1 of 2): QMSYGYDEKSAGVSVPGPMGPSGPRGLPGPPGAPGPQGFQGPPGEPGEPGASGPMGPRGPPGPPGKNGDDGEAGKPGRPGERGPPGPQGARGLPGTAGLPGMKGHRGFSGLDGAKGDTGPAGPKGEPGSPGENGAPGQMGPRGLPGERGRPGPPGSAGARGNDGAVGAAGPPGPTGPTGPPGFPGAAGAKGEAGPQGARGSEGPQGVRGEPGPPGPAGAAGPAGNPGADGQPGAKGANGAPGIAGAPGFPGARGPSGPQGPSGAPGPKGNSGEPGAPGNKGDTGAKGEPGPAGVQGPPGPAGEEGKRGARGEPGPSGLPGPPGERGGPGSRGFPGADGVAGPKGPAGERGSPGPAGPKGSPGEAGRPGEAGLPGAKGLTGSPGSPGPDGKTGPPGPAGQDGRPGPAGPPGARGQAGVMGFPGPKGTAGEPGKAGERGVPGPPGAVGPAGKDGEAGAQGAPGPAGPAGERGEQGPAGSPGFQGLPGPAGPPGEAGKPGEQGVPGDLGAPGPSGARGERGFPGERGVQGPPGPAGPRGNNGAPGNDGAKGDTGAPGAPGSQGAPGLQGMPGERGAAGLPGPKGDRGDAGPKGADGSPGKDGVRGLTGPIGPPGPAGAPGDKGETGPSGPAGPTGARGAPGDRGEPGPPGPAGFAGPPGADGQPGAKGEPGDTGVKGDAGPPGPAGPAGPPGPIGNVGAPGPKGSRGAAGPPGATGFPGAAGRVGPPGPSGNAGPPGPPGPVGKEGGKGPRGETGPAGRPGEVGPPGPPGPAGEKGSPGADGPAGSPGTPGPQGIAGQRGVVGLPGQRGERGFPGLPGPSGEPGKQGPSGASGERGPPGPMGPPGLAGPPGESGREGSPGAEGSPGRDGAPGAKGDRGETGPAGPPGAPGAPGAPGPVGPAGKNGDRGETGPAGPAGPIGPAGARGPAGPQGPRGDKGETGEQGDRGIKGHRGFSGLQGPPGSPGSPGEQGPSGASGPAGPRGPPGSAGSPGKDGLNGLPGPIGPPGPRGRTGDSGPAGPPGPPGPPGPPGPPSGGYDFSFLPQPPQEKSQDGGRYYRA
Sequence of rat collagen type I (rat) (P02466 86-1125, chain 2 of 2, further chain): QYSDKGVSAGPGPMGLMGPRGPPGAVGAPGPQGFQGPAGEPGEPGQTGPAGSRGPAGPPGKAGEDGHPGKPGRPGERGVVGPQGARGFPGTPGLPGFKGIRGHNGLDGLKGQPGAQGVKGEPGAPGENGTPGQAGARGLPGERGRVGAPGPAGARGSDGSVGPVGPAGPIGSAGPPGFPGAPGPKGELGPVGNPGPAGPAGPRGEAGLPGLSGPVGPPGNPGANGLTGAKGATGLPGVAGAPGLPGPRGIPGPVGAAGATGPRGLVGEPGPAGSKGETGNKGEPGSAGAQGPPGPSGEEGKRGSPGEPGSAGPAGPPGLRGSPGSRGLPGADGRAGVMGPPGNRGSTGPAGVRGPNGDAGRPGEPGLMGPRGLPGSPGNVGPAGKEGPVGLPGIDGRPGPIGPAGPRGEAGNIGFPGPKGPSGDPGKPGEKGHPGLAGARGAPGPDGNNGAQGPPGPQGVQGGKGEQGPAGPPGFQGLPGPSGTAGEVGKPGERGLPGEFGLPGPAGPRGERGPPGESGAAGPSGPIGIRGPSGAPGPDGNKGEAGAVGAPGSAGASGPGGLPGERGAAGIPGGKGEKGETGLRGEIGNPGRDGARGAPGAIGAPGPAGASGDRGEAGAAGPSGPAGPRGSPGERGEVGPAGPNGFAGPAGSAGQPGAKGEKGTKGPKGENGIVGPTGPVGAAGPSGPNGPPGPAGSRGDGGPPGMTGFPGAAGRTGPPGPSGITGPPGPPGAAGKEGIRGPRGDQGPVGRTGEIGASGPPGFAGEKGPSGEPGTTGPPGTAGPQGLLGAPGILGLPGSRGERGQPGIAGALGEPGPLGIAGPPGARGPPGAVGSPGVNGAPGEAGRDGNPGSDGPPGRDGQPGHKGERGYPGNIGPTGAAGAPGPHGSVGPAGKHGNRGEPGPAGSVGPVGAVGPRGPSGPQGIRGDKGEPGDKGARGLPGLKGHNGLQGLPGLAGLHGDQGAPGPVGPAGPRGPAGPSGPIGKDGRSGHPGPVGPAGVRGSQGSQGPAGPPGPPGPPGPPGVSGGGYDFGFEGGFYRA

% of Comp ID No 1014 bound to insoluble rat collagen in presence of the competitor (Compound ID No 1014 [1]): 28.1%
% of Comp ID No 1014 bound to insoluble human collagen in presence of the competitor (Compound ID No 1014 [2]): 59.9%
B1: Type IV human collagen (soluble competitor protein), P02462 28-1669; P08572 26-1712 (protein)
chain 1: not shown
chain 2: FLAQSVLAGVKKFDVPCGGRDCSGGCQCYPEKGGRGQPGPVGPQGYNGPPGLQGFPGLQGRKGDKGERGAPGVTGPKGDVGARGVSGFPGADGIPGHPGQGGPRGRPGYDGCNGTQGDSGPQGPPGSEGFTGPPGPQGPKGQKGEPYALPKEERDRYRGEPGEPGLVGFQGPPGRPGHVGQMGPVGAPGRPGPPGPPGPKGQQGNRGLGFYGVKGEKGDVGQPGPNGIPSDTLHPIIAPTGVTFHPDQYKGEKGSEGEPGIRGISLKGEEGIMGFPGLRGYPGLSGEKGSPGQKGSRGLDGYQGPDGPRGPKGEAGDPGPPGLPAYSPHPSLAKGARGDPGFPGAQGEPGSQGEPGDPGLPGPPGLSIGDGDQRRGLPGEMGPKGFIGDPGIPALYGGPPGPDGKRGPPGPPGLPGPPGPDGFLFGLKGAKGRAGFPGLPGSPGARGPKGWKGDAGECRCTEGDEAIKGLPGLPGPKGFAGINGEPGRKGDRGDPGQHGLPGFPGLKGVPGNIGAPGPKGAKGDSRTITTKGERGQPGVPGVPGMKGDDGSPGRDGLDGFPGLPGPPGDGIKGPPGDPGYPGIPGTKGTPGEMGPPGLGLPGLKGQRGFPGDAGLPGPPGFLGPPGPAGTPGQIDCDTDVKRAVGGDRQEAIQPGCIGGPKGLPGLPGPPGPTGAKGLRGIPGFAGADGGPGPRGLPGDAGREGFPGPPGFIGPRGSKGAVGLPGPDGSPGPIGLPGPDGPPGERGLPGEVLGAQPGPRGDAGVPGQPGLKGLPGDRGPPGFRGSQGMPGMPGLKGQPGLPGPSGQPGLYGPPGLHGFPGAPGQEGPLGLPGIPGREGLPGDRGDPGDTGAPGPVGMKGLSGDRGDAGFTGEQGHPGSPGFKGIDGMPGTPGLKGDRGSPGMDGFQGMPGLKGRPGFPGSKGEAGFFGIPGLKGLAGEPGFKGSRGDPGPPGPPPVILPGMKDIKGEKGDEGPMGLKGYLGAKGIQGMPGIPGLSGIPGLPGRPGHIKGVKGDIGVPGIPGLPGFPGVAGPPGITGFPGFIGSRGDKGAPGRAGLYGEIGATGDFGDIGDTINLPGRPGLKGERGTTGIPGLKGFFGEKGTEGDIGFPGITGVTGVQGPPGLKGQTGFPGLTGPPGSQGELGRIGLPGGKGDDGWPGAPGLPGFPGLRGIRGLHGLPGTKGFPGSPGSDIHGDPGFPGPPGERGDPGEANTLPGPVGVPGQKGDQGAPGERGPPGSPGLQGFPGITPPSNISGAPGDKGAPGIFGLKGYRGPPGPPGSAALPGSKGDTGNPGAPGTPGTKGWAGDSGPQGRPGVFGLPGEKGPRGEQGFMGNTGPTGAVGDRGPKGPKGDPGFPGAPGTVGAPGIAGIPQKIAVQPGTVGPQGRRGPPGAPGEMGPQGPPGEPGFRGAPGKAGPQGRGGVSAVPGFRGDEGPIGHQGPIGQEGAPGRPGSPGLPGMPGRSVSIGYLLVKHSQTDQEPMCPVGMNKLWSGYSLLYFEGQEKAHNQDLGLAGSCLARFSTMPFLYCNPGDVCYYASRNDKSYWLSTTAPLPMMPVAEDEIKPYISRCSVCEAPAIAIAVHSQDVSIPHCPAGWRSLWIGYSFLMHTAAGDEGGGQSLVSPGSCLEDFRATPFIECNGGRGTCHYYANKYSFWLTTIPEQSFQGSPSADTLKAGLIRTHISRCQVCMKNL
modifications: here or on the partner: as printed: Gd^T-K(Gd^D)-K(Gd^D)-W-H-C-Y-T-Y-F-P-H-H-Y-C-V-Y-G; Gd^T = GdDTPA-thiourea, Gd^D = GdDOTAGA; cyclic through a disulfide between the two cysteines

% Collagen Binding, Dried Human [3]: 89%
% Collagen Binding, Dried Rat [4]: 86%
B2: SEQ ID NO: 182 (peptide)
peptide: DWTCS[dY]DEYTWHCNYE
modifications: disulfide 4-13 (inferred); not fully specified (C-terminus); printed as D W T C S y D E Y T W H C N Y E

% Collagen Binding, Dried Human [3]: 73%
% Collagen Binding, Dried Rat [4]: 63%
B3: SEQ ID NO: 183 (peptide)
peptide: DWTCS[dL]DEYTWHCNYE
modifications: disulfide 4-13 (inferred); not fully specified (C-terminus); printed as D W T C S l D E Y T W H C N Y E
